Measured values taken from US20250270295A1.

Biological target: soluble gp34 wild type ectodomain, V5-His tagged (sgp34wt-V5-His) (HCMV strain AD169)
Experiment: blocking of sgp34wt binding to immobilized human IgG, ELISA

Q: mouse IgG1 isotype antibody was tested. Which IC50 did it give?
A: 9.69 µg/mL
